Laboratory results published in patent publication US20090053233A1 (LABORATOIRE FRANCAIS DU FRACTIONNEMENT ET DES …, published 2009).

T1: CD20 antigen expressed on Raji cells (UniProt P11836 1-297, limits assumed)
T1 construct: whole, on cells; Raji is a human B cell line
T1 sequence (looked up): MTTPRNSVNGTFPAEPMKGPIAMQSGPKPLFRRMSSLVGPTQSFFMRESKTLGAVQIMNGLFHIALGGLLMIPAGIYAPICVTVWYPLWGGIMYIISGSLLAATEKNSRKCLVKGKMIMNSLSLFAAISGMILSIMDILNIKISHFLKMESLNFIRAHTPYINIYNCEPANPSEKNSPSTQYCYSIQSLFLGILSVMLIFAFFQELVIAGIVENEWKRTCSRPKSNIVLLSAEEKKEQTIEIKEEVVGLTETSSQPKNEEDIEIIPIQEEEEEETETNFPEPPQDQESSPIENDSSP


Tests used:
[1] = target: CD16 (FcγRIIIA) receptor expressed on Jurkat-CD16 cells (human, UniProt P08637 17-208); assay: cell-based or functional assay
CD16 (FcγRIIIA) receptor expressed on Jurkat-CD16 cells, sequence (P08637 17-208): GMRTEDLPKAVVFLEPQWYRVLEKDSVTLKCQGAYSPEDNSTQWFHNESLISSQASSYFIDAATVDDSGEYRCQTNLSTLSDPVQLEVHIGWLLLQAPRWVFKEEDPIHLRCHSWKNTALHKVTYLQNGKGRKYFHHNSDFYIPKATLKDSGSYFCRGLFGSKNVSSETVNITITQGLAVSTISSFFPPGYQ

[2] = target: T1, CD20 antigen expressed on Raji cells; assay: flow cytometry competition on Raji cells; competitor CAT-13.6E12 detected with PE anti-mouse IgG
[3] = target: T1, CD20 antigen expressed on Raji cells; assay: specificity study, as for EMAB6 (competition with CAT-13.6E12 on Raji cells); no details given

| Rituxan® EC50/EMAB6 EC50 ratio, IL-2 secretion by Jurkat-CD16 cells in the presence of Raji cells [1] | binding result [2] | binding result [3] | Binder |
| --- | --- | --- | --- |
| ~15 ratio | binds |  | anti-CD20 chimeric antibody EMAB6 produced by clone R509 (YB2/0 cell line) (antibody, human IgG1, kappa, Murine-human chimeric IgG1 kappa (murine CAT-13.6E12 variable regions, human gamma1 and kappa constant regions), produced in rat YB2/0 cells, low fucose; The cloned V fragments carry the natural signal peptide; also called chimeric EMAB6 antibody; AMAB6) heavy: not shown light: QIVLSQSPAILSASPGEKVTMTCRASSSVSYMHWYQQKPGSSPKPWIYATSNLASGVPARFSGSGSGTSYSFTISRVEAEDAATYYCQQWTFNPPTFGGGTRLEINRTVAAPSVFIFPPSDEQLKSGTASVVCLLNNFYPREAKVQWKVDNALQSGNSQESVTEQDSKDSTYSLSSTLTLSKADYEKHKVYACEVTHQGLSSPVTKSFNRGEC |
|  |  | binds | anti-CD20 chimeric antibody EMAB603 produced by clone R603 (YB2/0 cell line) (antibody, human IgG1, kappa, Murine-human chimeric IgG1 kappa; Produced in rat YB2/0 cells; also called chimeric EMAB603 antibody; EMBA603) heavy: not shown light: QIVLSQSPAILSASPGEKVTMTCRASSSVSYMHWYQQKPGSSPKPWIYATSNLASGVPARFSGSGSGTSYSFTISRVEAEDAATYYCQQWTFNPPTFGGGTRLEIKRTVAAPSVFIFPPSDEQLKSGTASVVCLLNNFYPREAKVQWKVDNALQSGNSQESVTEQDSKDSTYSLSSTLTLSKADYEKHKVYACEVTHQGLSSPVTKSFNRGEC |
